Assay results: patent US10429300B2, “Surface plasmon resonance approach to monitor protein-ligand interactions” (The Johns Hopkins University, priority 2015, dated 2019)

What was measured:
[1] = molecular target: T1, rNav1.2a VSD IV paddle peptide (R1629A/L1630A, SEQ ID NO: 4) (Rattus norvegicus, UniProt P04775, L1630A/R1629A); assay: SPR on immobilized rNav1.2a VSD IV paddle peptide; type: binding; details: 100 nM toxin; 500 fmol peptide
T1 construct: purchased ProteoGenix; host or cells: chemical synthesis (Fmoc solid phase)
T1 sequence (P04775 1605-1636 R1629A/L1630A): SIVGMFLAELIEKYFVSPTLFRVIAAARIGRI

[2] = molecular target: T2, rNav1.2a VSD II paddle peptide (V843A, SEQ ID NO: 2) (Rattus norvegicus, UniProt P04775, V843A); assay: SPR on immobilized rNav1.2a VSD II paddle peptide; type: binding; details: 100 nM toxin; 500 fmol peptide
T2 construct: purchased ProteoGenix; host or cells: chemical synthesis (Fmoc solid phase)
T2 sequence (P04775 832-856 V843A): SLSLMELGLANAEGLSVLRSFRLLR
Experimental: SPR experiments were performed at 25° C. on a Biacore™ T200 instrument (GE Healthcare) using 150 mM NaCl, 3 mM EDTA, 0.005% surfactant P20, and 10 mM HEPES-NaOH, pH 7.4, for the coupling protocol or 50 mM phosphate, pH 7.2, as running buffer. Neutravidin (Thermo Fisher Scientific) was immobilized on CM5 sensor chips (GE Healthcare) using an amine coupling chemistry. All chemicals were obtained from Sigma-Aldrich. […] In all SPR experiments, nonspecific binding obtained in the control flow cell was subtracted from the signal obtained in the experimental flow cell. For qualitative binding analysis, toxins (100 nM in running buffer containing 0.1% BSA) were injected at a flow rate of 20 μl/min over 2 min. […] In between injections, the surface of the sensor chip was regenerated by injecting 1 M NaCl (15 s at 30 l/min). The bulk signal caused by refractive index differences between the flow buffer and the buffer containing the analyte was systematically excluded from the data-fitting process. It is worth noting that isolating a paddle motif (ligand) can induce conformational changes that can affect toxin (analyte) efficacy. […] Sensorgrams can reveal such ligand heterogeneity by displaying biphasic dissociation curves that cannot be fitted with the frequently used Langmuir model, which assumes a 1:1 stoichiometry of analyte to ligand. To account for a possible heterogeneity of surface sites, we calculated the rate constants and affinity equilibrium dissociation constants (KD) for AaHII by a fit to a heterogeneous ligand model incorporated into the Biacore T200 Evaluation™ software (v1.0). This model assumes the presence of two sites on the ligand that can bind analyte and can be described by these equations in which A represents the analyte and B1/B2 represents the heterogeneous ligand:
(A) Shown are the CD spectra of the rNav1.2a VSD II and IV paddle peptides used in this paper. […] (B) Representative association and dissociation kinetic curves obtained using SPR after the application of varying concentrations of AaHII (15-2,000 nM) over a sensor chip to which 50 fmol of the rNav1.2a VSD IV paddle peptide was linked. Toxin was applied after obtaining a steady baseline. Colored traces represent toxin binding obtained after subtraction of the signal from the control flow cell. […] Toxin concentrations are indicated on the right in a shade of gray corresponding to the sensorgram. (C) Representative SPR traces after the application of 100 nM KTX, AaHI, AaHII, LqqV, BomIV, TsVII, and CssIV over a sensor chip to which the rNav1.2a VSD II (left) or IV (right) paddle peptide (500 fmol) was linked. Toxin was applied after obtaining a steady baseline. (D) Binding capacities of 100 nM α-scorpion toxins AaHI, AaHII, LqqV, the α-like scorpion toxin BomIV, and the β-scorpion toxins TsVII and CssIV to the VSD II and IV paddle motifs using SPR (error bars represent±SEM). Y-axis represents the maximum RUs obtained after toxin application.
Next, the VSD IV peptide was fixed on SPR sensor chips by adding a K-linked biotin group to the C terminus, resulting in a 32-amino acid peptide altogether (SEQ ID NO: 4 which is mutated SEQ ID NO: 3 of FIG. 2A).

[3] = system: rNav1.2a/Kv2.1 VSD IV paddle chimera; details: cited from earlier work
[4] = molecular target: rNav1.2a/Kv2.1 VSD II paddle chimera; details: read-out: apparent KD, paddle motif in the domain II voltage sensor; cited from earlier work
WT rKv2.1 = assay: Two-electrode voltage-clamp, WT rKv2.1 in Xenopus oocytes; type: cell-based, rat; details: 1 μM toxin
Description: The DNA sequence of rat (r)Nav1.2a (provided by A. Goldin, University of California, Irvine, Irvine, Calif.), rKv2.1 (provided by K. J. Swartz, National Institutes of Health), and the rNav1.2a/Kv2.1 VSD II or IV chimera was confirmed by automated DNA sequencing, and cRNA was synthesized using T7 polymerase (mMessage mMachine™ kit; Life Technologies) after linearizing the DNA with appropriate restriction enzymes. Channels were expressed in Xenopus oocytes (obtained from Xenopus 1) and studied after a 1-d incubation after cRNA injection (incubated at 17° C. in 96 mM NaCl, 2 mM KCl, 5 mM HEPES, 1 mM MgCl2, 1.8 mM CaCl2, and 50 μg/ml gentamycin, pH 7.6 with NaOH) using two-electrode voltage-clamp recording techniques (OC-725C; Warner Instruments) with a 150-μl recording chamber. Data were filtered at 4 kHz and digitized at 20 kHz using pClamp™ 10 software (Molecular Devices). Microelectrode resistances were 0.5-1.5 MΩ when filled with 3 M KCl. For Kv chimera channel experiments, the external recording solution contained (mM): 50 KCl, 50 NaCl, 5 HEPES, 1 MgCl2, and 0.3 CaCl2, pH 7.6 with NaOH. For rNav1.2a experiments, the external recording solution contained (mM): 100 NaCl, 5 HEPES, 1 MgCl2, and 1.8 CaCl2, pH 7.6 with NaOH. All experiments were performed at ˜22° C. Leak and background conductances, identified by blocking the channel with agitoxin-2 (provided by K. J. Swartz), have been subtracted for all of the Kv channel currents shown. […] For all channels, voltage-activation relationships were recorded in the absence and presence of toxin. The ratio of currents (I/I0) recorded in the presence (I) and absence (I0) of toxin was calculated for voltages typically ranging from −140 to 10 cmV, depending on the construct. […] The apparent equilibrium dissociation constant (apparent KD) for Kv channels was calculated according to KD=((1/(1c−cFu^1/4))c−c1)[toxin], assuming four independent toxin-binding sites per channel. […]

[5] = system: rNav1.2a/Kv2.1 VSD IV paddle chimera; assay: Two-electrode voltage-clamp, rNav1.2a/Kv2.1 VSD IV paddle chimera in Xenopus oocytes; type: cell-based, rat; details: 100 nM toxin; for depolarizing shift in midpoint (V1/2): Boltzmann fit, n=3
Description: (§1) The DNA sequence of rat (r)Nav1.2a (provided by A. Goldin, University of California, Irvine, Irvine, Calif.), rKv2.1 (provided by K. J. Swartz, National Institutes of Health), and the rNav1.2a/Kv2.1 VSD II or IV chimera was confirmed by automated DNA sequencing, and cRNA was synthesized using T7 polymerase (mMessage mMachine™ kit; Life Technologies) after linearizing the DNA with appropriate restriction enzymes. Channels were expressed in Xenopus oocytes (obtained from Xenopus 1) and studied after a 1-d incubation after cRNA injection (incubated at 17° C. in 96 mM NaCl, 2 mM KCl, 5 mM HEPES, 1 mM MgCl2, 1.8 mM CaCl2, and 50 μg/ml gentamycin, pH 7.6 with NaOH) using two-electrode voltage-clamp recording techniques (OC-725C; Warner Instruments) with a 150-μl recording chamber. Data were filtered at 4 kHz and digitized at 20 kHz using pClamp™ 10 software (Molecular Devices). Microelectrode resistances were 0.5-1.5 MΩ when filled with 3 M KCl. For Kv chimera channel experiments, the external recording solution contained (mM): 50 KCl, 50 NaCl, 5 HEPES, 1 MgCl2, and 0.3 CaCl2, pH 7.6 with NaOH. For rNav1.2a experiments, the external recording solution contained (mM): 100 NaCl, 5 HEPES, 1 MgCl2, and 1.8 CaCl2, pH 7.6 with NaOH. All experiments were performed at ˜22° C. Leak and background conductances, identified by blocking the channel with agitoxin-2 (provided by K. J. Swartz), have been subtracted for all of the Kv channel currents shown. […] Voltage-activation relationships were obtained by measuring tail currents for Kv channels or steady-state currents and calculating conductance for Nav channels, and a single Boltzmann function was fitted to the data according to I/Imax=[1c+cexp(−zF(Vc−cV1/2)/RT)]^−1, where I/Imax is the normalized tail-current amplitude, z is the equivalent charge, V1/2 is the half-activation voltage, F is Faraday's constant, R is the gas constant, and T is temperature in kelvin. For all channels, voltage-activation relationships were recorded in the absence and presence of toxin. The ratio of currents (I/I0) recorded in the presence (I) and absence (I0) of toxin was calculated for voltages typically ranging from −140 to 10 cmV, depending on the construct. […] The apparent equilibrium dissociation constant (apparent KD) for Kv channels was calculated according to KD=((1/(1c−cFu^1/4))c−c1)[toxin], assuming four independent toxin-binding sites per channel. Results are given as mean±SEM unless noted otherwise. Offline data analysis was performed using Clampfit 10™ (Molecular Devices), Origin 8.0™ (OriginLab), and Excel™ (Microsoft). All chemicals were obtained from Sigma-Aldrich.
(§2) Representative sodium currents were elicited by a 50-ms depolarization to a suitable membrane voltage (−20 to −15 mV) before (black) and after toxin addition (green) from a holding voltage of −90 mV. […] For each toxin, K^+ currents were elicited by a 300-ms depolarization to 0 mV from a holding voltage of −90 mV (tail voltage was −60 mV). […] For each toxin, K^+ currents (top) were elicited by a 300-ms depolarization near the foot of the voltage-activation curve (bottom) from a holding voltage of −90 mV.

rNav1.2a = assay: Two-electrode voltage-clamp, rNav1.2a expressed in Xenopus oocytes; type: cell-based, rat; details: 100 nM toxin; for effect on rNav1.2a fast inactivation: 50-ms test pulse; for fast inactivation time constant (τ) after toxin application: single-exponential fit of current decay, n=3, mean±SEM
Description: as §1, §2

Sequence of rNav1.2a/Kv2.1 VSD IV paddle chimera (P04775 1605-1636 limits assumed, stated change not applied): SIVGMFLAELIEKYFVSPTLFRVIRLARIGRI
Sequence of rNav1.2a/Kv2.1 VSD II paddle chimera (P04775 832-856 limits assumed, change not shown): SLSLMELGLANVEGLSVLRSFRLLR

kaliotoxin (GVEINVKCSGSPQCLKPCKDAGMRFGKCMNRKCHCTPK) [KTX, negative control, reference compound]
SPR binding to VSD IV paddle peptide [1]: did not bind | SPR binding to VSD II paddle peptide [2]: did not bind

B1: TsVII: β-scorpion toxin from the Brazilian scorpion Tityus serrulatus (protein, UniProt P15226 21-81, looked up)
Beta-mammal/insect toxin Ts1: KEGYLMDHEGCKLSCFIRPSGYCGRECGIKKGSSGYCAWPACYCYGLPNWVKVWDRATNKC
binding to the VSD IV paddle, electrophysiological data from chimeras [3]: can also bind | SPR binding to VSD IV paddle peptide [1]: responded | Kd [4]: 112 ± 12 nM | SPR binding to VSD II paddle peptide [2]: responded

B2: LqqV: Nav channel-selective α-scorpion toxin from Leiurus quinquestriatus hebraeus (protein)
chain: LKDGYIVDDKNCTFFCGRNAYCNDECKKKGGESGYCQWASPYGNACWCYKLPDRVSIKEKGRCN
effect on WT Kv2.1 K+ current (WT rKv2.1): insensitive | K+ current inhibition of VSD IV chimera [5]: robust voltage-dependent K^+ current inhibition | depolarizing shift in midpoint (V1/2) [5]: > 50 mV | effect on rNav1.2a fast inactivation (rNav1.2a): inhibits rNav1.2a fast inactivation | fast inactivation time constant (τ) after toxin application (rNav1.2a): 4.6±0.1 | SPR binding to VSD II paddle peptide [2]: a response was not obtained

B3: AaHI: Nav channel-selective α-scorpion toxin from Androctonus australis hector (protein)
chain: KRDGYIVYPNNCVYHCVPPCDGLCKKNGGSSGSCSFLVPSGLACWCKDLPDNVPIKDTSRKCT
effect on WT Kv2.1 K+ current (WT rKv2.1): insensitive | K+ current inhibition of VSD IV chimera [5]: robust voltage-dependent K^+ current inhibition | depolarizing shift in midpoint (V1/2) [5]: ~15 mV | effect on rNav1.2a fast inactivation (rNav1.2a): inhibits rNav1.2a fast inactivation | fast inactivation time constant (τ) after toxin application (rNav1.2a): 4.7±0.1 | SPR binding to VSD II paddle peptide [2]: a response was not obtained

B4: BomIV: α-like scorpion toxin from Buthus occitanus mardochei (protein)
chain: GRDAYIAQPENCVYECAKNSYCNDLCTKNGAKSGYCQWLGKYGNACWCEDLPDNVPIRIPGKCHF
effect on WT Kv2.1 K+ current (WT rKv2.1): insensitive | K+ current inhibition of VSD IV chimera [5]: robust voltage-dependent K^+ current inhibition | depolarizing shift in midpoint (V1/2) [5]: ~26 mV | effect on rNav1.2a fast inactivation (rNav1.2a): inhibits rNav1.2a fast inactivation | fast inactivation time constant (τ) after toxin application (rNav1.2a): 8.5±0.1 | SPR binding to VSD II paddle peptide [2]: a response was not obtained
